{"source": "paper PMC6395754", "molecular_target": "profilin1 (PFN1) (UniProt P07737)", "experiment": "GST-PFN1 pull-down from cell lysate", "details": "reference: wild type", "data": [{"substance": "DIAPH1 (from UniProt O60610) S629A", "values": [{"measurement": "binding against the reference", "setting": "sites S629", "result": "stronger"}]}, {"substance": "DIAPH1 (from UniProt O60610) S665A", "values": [{"measurement": "binding against the reference", "setting": "sites S665", "result": "stronger"}]}]}
